{"source": "paper PMC6423188", "about": "“HYNIC and DOMA conjugated radiolabeled bombesin analogs as receptor-targeted probes for scintigraphic detection of breast tumor” (EJNMMI Research, 2019)", "key": {"[1]": {"experiment": "in vitro", "type": "in vitro ADME", "conditions": "rat", "experimental": "An aliquot (100 μL) of ^99mTc-BN1/^99mTc-BN2/^99mTc-BN3/^99mTc-BN4/^99mTc-BNS was added to 1 mL of freshly collected rat serum in centrifuge tube. The mixture was then incubated at 37 °C for 1 h; the serum protein was precipitated by adding 1 mL trichloroacetic acid (10%, V/V). The supernatant and precipitate were separated by centrifugation at 3000 rpm for 5 min. Radioactivities of both the phases were measured separately. The above experimental procedure was repeated three times. The percentage of protein binding was determined as: Plasma protein binding % = (precipitate counts (CPM) / [precipitate counts (CPM) + plasma counts (CPM)]) × 100%."}, "[2]": {"experiment": "physchem", "type": "physicochemical", "conditions": "pH 7.4", "experimental": "Lipophilicity of the HPLC-purified radiopeptide analogs was determined through octanol/water partition coefficients, determined at pH 7.4 by measuring the distribution of the HPLC purified radiolabeled peptides in 1-octanol and PBS. Then, 50 μL HPLC purified ^99mTc-BN1/^99mTc-BN2/^99mTc-BN3/^99mTc-BN4/^99mTc-BNS with 100 μCi of radiolabeled compound in PBS was added to a to a centrifuge tube containing 1 mL n-octanol and 1 mL PBS (0.025 M, pH 7.4). The tube was vortexed at room temperature for 2 min and they are centrifuged at 5000 rpm for 5 min to ensure complete separation of layers. Further, 100 μL of each phase was transferred into a separate pre-weighed vial and measured in the well γ-counter. The ratio of octanol layer counts to aqueous layer counts was expressed as the distribution coefficient (D, the appropriate descriptor for ionizable compounds) and logD was used for determination of lipophilicity. Counts per unit weight of the sample were calculated, and logD value as calculated as follows:\nlog10D = log10 [(cpm in octanol – cpm in background) / (cpm in buffer – cpm in background)]"}, "[3]": {"system": "MDA-MB-231 tumor-bearing mice", "experiment": "In vivo biodistribution", "design": "species or system mouse", "conditions": "for Tumor uptake: MDA-MB-231 tumor; for Tumor uptake / Blood uptake / Heart uptake / Intestine uptake / Kidney uptake / Liver uptake / Lung uptake / Muscle uptake / Pancreas uptake / Spleen uptake / Stomach uptake / Urine + urinary bladder uptake: mean ± SD, n = 3", "experimental": "All animal experiments were done according to the CSIR-IICB Animal Ethics Committee’s rules and regulation. Forty-eight hours before tumor cell implantation, an immunosuppressive drug (cyclosporine-A) was given intraperitoneal (i.p) at a concentration of 30 mg/kg/day. After that, MDA-MB-231 cells (5 × 10^6) 0.2 mL were implanted subcutaneously into the left flanks of the hind leg of BALB/c mice. Thereafter, the same dose of cyclosporine was given i.p. daily up to 2 weeks. Two weeks after inoculation of the tumor cells, when tumors reached ~ 0.5 cm in mean diameter, the tumor-bearing mice were used for biodistribution and imaging studies. Animals were monitored daily and their weights were recorded. Control group of mice received only 0.9 wt% saline. After cell implantation, the growth rate of the breast tumor followed a satisfactory pattern of spheroid shape and tumors are palpable within 2 to 4 weeks. MDA-MB-231 cell implanted mice tumor models were used for biodistribution and planar imaging studies of these radiolabeled new bombesin analogs.\nIn tissue biodistribution studies, tumor-bearing animals were divided into four groups and well hydrated for 1 h by intraperitoneal administration of saline (0.9%, 2 mL). Three animals per groups were used for biodistribution studies. After that, the radiolabeled new bombesin analogs (^99mTc-BN) were injected intravenously in each animal of each group consequently through the tail vein [24–27]. After 5, 30, 60, and 120 min intravenous administrations of radiolabeled analogs, the animals were sacrificed; blood, heart, lung, liver, kidney, stomach, intestine, spleen, pancreas, brain, muscle, and tumor were excised, weighed, and counted for radioactivity. The organ uptake was calculated as a percentage of the injected activity per gram of wet tissue (%IA/g). In order to evaluate whether binding of bombesin analogs to MDA-MB-231 cells in vivo is specific; blocking studies with ^99mTc-labeled bombesin analogs in tumor-bearing mice were carried out. Groups of three animals were injected 0.03 nmol of ^99mTc-labeled BN analogs (2 MBq) with 25 nmol of non-radiolabeled BN peptide. After 60 min and 120 min, mice were sacrificed and the organs were collected. Each organ was weighed and counted in a gamma counter along with activity standard and percentage of injected activity per gram (%IA/g) of tissue was calculated for each type of tissues. Counts were corrected for background radiation and physical decay of the radioactivity. The uptake was expressed in the percentage of injected activity per gram of each organ (%IA/g). Data were analyzed statistically by the t test, with the level of significance set at P < 0.05."}, "[4]": {"conditions": "60 min p.i., blocked with excess non-radiolabeled BN peptide"}}}
{"substance": "^99mTc-BN(7-14)NH2 [99mTc-BNS, reference compound]", "values": [{"measurement": "Percentage of plasma protein binding", "setting": "[1]", "value": 54, "unit": "%"}, {"measurement": "logD", "setting": "[2]", "value": "− 0.42 ± 0.10"}, {"measurement": "Tumor uptake", "setting": "[3]; 5 min p.i., i.v.", "value": "0.45 ± 0.12", "unit": "%IA/g"}, {"measurement": "Blood uptake", "setting": "[3]; 5 min p.i., i.v.", "value": "1.25 ± 0.05", "unit": "%IA/g"}, {"measurement": "Heart uptake", "setting": "[3]; 5 min p.i., i.v.", "value": "1.80 ± 0.02", "unit": "%IA/g"}, {"measurement": "Intestine uptake", "setting": "[3]; 5 min p.i., i.v.", "value": "0.84 ± 0.03", "unit": "%IA/g"}, {"measurement": "Kidney uptake", "setting": "[3]; 5 min p.i., i.v.", "value": "2.86 ± 0.10", "unit": "%IA/g"}, {"measurement": "Liver uptake", "setting": "[3]; 5 min p.i., i.v.", "value": "1.60 ± 0.07", "unit": "%IA/g"}, {"measurement": "Lung uptake", "setting": "[3]; 5 min p.i., i.v.", "value": "1.35 ± 0.04", "unit": "%IA/g"}, {"measurement": "Muscle uptake", "setting": "[3]; 5 min p.i., i.v.", "value": "0.16 ± 0.03", "unit": "%IA/g"}, {"measurement": "Pancreas uptake", "setting": "[3]; 5 min p.i., i.v.", "value": "0.88 ± 0.01", "unit": "%IA/g"}, {"measurement": "Spleen uptake", "setting": "[3]; 5 min p.i., i.v.", "value": "0.22 ± 0.04", "unit": "%IA/g"}, {"measurement": "Stomach uptake", "setting": "[3]; 5 min p.i., i.v.", "value": "0.76 ± 0.03", "unit": "%IA/g"}, {"measurement": "Urine + urinary bladder uptake", "setting": "[3]; 5 min p.i., i.v.", "value": "0.56 ± 0.02", "unit": "%IA/g"}, {"measurement": "Tumor uptake", "setting": "[3]; 30 min p.i., i.v.", "value": "0.95 ± 0.05", "unit": "%IA/g"}, {"measurement": "Blood uptake", "setting": "[3]; 30 min p.i., i.v.", "value": "1.02 ± 0.03", "unit": "%IA/g"}, {"measurement": "Heart uptake", "setting": "[3]; 30 min p.i., i.v.", "value": "1.10 ± 0.01", "unit": "%IA/g"}, {"measurement": "Intestine uptake", "setting": "[3]; 30 min p.i., i.v.", "value": "0.52 ± 0.05", "unit": "%IA/g"}, {"measurement": "Kidney uptake", "setting": "[3]; 30 min p.i., i.v.", "value": "3.12 ± 0.20", "unit": "%IA/g"}, {"measurement": "Liver uptake", "setting": "[3]; 30 min p.i., i.v.", "value": "0.85 ± 0.06", "unit": "%IA/g"}, {"measurement": "Lung uptake", "setting": "[3]; 30 min p.i., i.v.", "value": "0.84 ± 0.11", "unit": "%IA/g"}, {"measurement": "Muscle uptake", "setting": "[3]; 30 min p.i., i.v.", "value": "0.26 ± 0.02", "unit": "%IA/g"}, {"measurement": "Pancreas uptake", "setting": "[3]; 30 min p.i., i.v.", "value": "1.73 ± 0.10", "unit": "%IA/g"}, {"measurement": "Spleen uptake", "setting": "[3]; 30 min p.i., i.v.", "value": "0.18 ± 0.03", "unit": "%IA/g"}, {"measurement": "Stomach uptake", "setting": "[3]; 30 min p.i., i.v.", "value": "0.69 ± 0.05", "unit": "%IA/g"}, {"measurement": "Urine + urinary bladder uptake", "setting": "[3]; 30 min p.i., i.v.", "value": "1.92 ± 0.07", "unit": "%IA/g"}, {"measurement": "tumor/kidney ratio", "setting": "[3]; 60 min p.i.", "value": 0.26}, {"measurement": "Tumor uptake", "setting": "[3]; [4]", "value": "0.68 ± 0.20", "unit": "%IA/g"}, {"measurement": "Blood uptake", "setting": "[3]; [4]", "value": "0.84 ± 0.01", "unit": "%IA/g"}, {"measurement": "Heart uptake", "setting": "[3]; [4]", "value": "0.77 ± 0.11", "unit": "%IA/g"}, {"measurement": "Intestine uptake", "setting": "[3]; [4]", "value": "0.36 ± 0.02", "unit": "%IA/g"}, {"measurement": "Kidney uptake", "setting": "[3]; [4]", "value": "2.88 ± 0.12", "unit": "%IA/g"}, {"measurement": "Liver uptake", "setting": "[3]; [4]", "value": "0.42 ± 0.04", "unit": "%IA/g"}, {"measurement": "Lung uptake", "setting": "[3]; [4]", "value": "0.70 ± 0.05", "unit": "%IA/g"}, {"measurement": "Muscle uptake", "setting": "[3]; [4]", "value": "0.17 ± 0.03", "unit": "%IA/g"}, {"measurement": "Pancreas uptake", "setting": "[3]; [4]", "value": "0.90 ± 0.02", "unit": "%IA/g"}, {"measurement": "Spleen uptake", "setting": "[3]; [4]", "value": "0.10 ± 0.03", "unit": "%IA/g"}, {"measurement": "Stomach uptake", "setting": "[3]; [4]", "value": "0.45 ± 0.01", "unit": "%IA/g"}, {"measurement": "Urine + urinary bladder uptake", "setting": "[3]; [4]", "value": "2.58 ± 0.18", "unit": "%IA/g"}, {"measurement": "Tumor uptake", "setting": "[3]; 60 min p.i., i.v.", "value": "0.75 ± 0.04", "unit": "%IA/g"}, {"measurement": "Blood uptake", "setting": "[3]; 60 min p.i., i.v.", "value": "0.82 ± 0.01", "unit": "%IA/g"}, {"measurement": "Heart uptake", "setting": "[3]; 60 min p.i., i.v.", "value": "0.79 ± 0.12", "unit": "%IA/g"}, {"measurement": "Intestine uptake", "setting": "[3]; 60 min p.i., i.v.", "value": "0.31 ± 0.02", "unit": "%IA/g"}, {"measurement": "Kidney uptake", "setting": "[3]; 60 min p.i., i.v.", "value": "2.82 ± 0.16", "unit": "%IA/g"}, {"measurement": "Liver uptake", "setting": "[3]; 60 min p.i., i.v.", "value": "0.40 ± 0.05", "unit": "%IA/g"}, {"measurement": "Lung uptake", "setting": "[3]; 60 min p.i., i.v.", "value": "0.68 ± 0.03", "unit": "%IA/g"}, {"measurement": "Muscle uptake", "setting": "[3]; 60 min p.i., i.v.", "value": "0.18 ± 0.04", "unit": "%IA/g"}, {"measurement": "Pancreas uptake", "setting": "[3]; 60 min p.i., i.v.", "value": "1.14 ± 0.05", "unit": "%IA/g"}, {"measurement": "Spleen uptake", "setting": "[3]; 60 min p.i., i.v.", "value": "0.11 ± 0.02", "unit": "%IA/g"}, {"measurement": "Stomach uptake", "setting": "[3]; 60 min p.i., i.v.", "value": "0.46 ± 0.04", "unit": "%IA/g"}, {"measurement": "Urine + urinary bladder uptake", "setting": "[3]; 60 min p.i., i.v.", "value": "2.54 ± 0.22", "unit": "%IA/g"}, {"measurement": "Tumor uptake", "setting": "[3]; 120 min p.i., i.v.", "value": "0.58 ± 0.01", "unit": "%IA/g"}, {"measurement": "Blood uptake", "setting": "[3]; 120 min p.i., i.v.", "value": "0.54 ± 0.01", "unit": "%IA/g"}, {"measurement": "Heart uptake", "setting": "[3]; 120 min p.i., i.v.", "value": "0.50 ± 0.01", "unit": "%IA/g"}, {"measurement": "Intestine uptake", "setting": "[3]; 120 min p.i., i.v.", "value": "0.22 ± 0.01", "unit": "%IA/g"}, {"measurement": "Kidney uptake", "setting": "[3]; 120 min p.i., i.v.", "value": "2.40 ± 0.12", "unit": "%IA/g"}, {"measurement": "Liver uptake", "setting": "[3]; 120 min p.i., i.v.", "value": "0.22 ± 0.02", "unit": "%IA/g"}, {"measurement": "Lung uptake", "setting": "[3]; 120 min p.i., i.v.", "value": "0.33 ± 0.02", "unit": "%IA/g"}, {"measurement": "Muscle uptake", "setting": "[3]; 120 min p.i., i.v.", "value": "0.11 ± 0.02", "unit": "%IA/g"}, {"measurement": "Pancreas uptake", "setting": "[3]; 120 min p.i., i.v.", "value": "0.95 ± 0.04", "unit": "%IA/g"}, {"measurement": "Spleen uptake", "setting": "[3]; 120 min p.i., i.v.", "value": "0.06 ± 0.11", "unit": "%IA/g"}, {"measurement": "Stomach uptake", "setting": "[3]; 120 min p.i., i.v.", "value": "0.12 ± 0.02", "unit": "%IA/g"}, {"measurement": "Urine + urinary bladder uptake", "setting": "[3]; 120 min p.i., i.v.", "value": "2.85 ± 0.03", "unit": "%IA/g"}]}
